The nanobody polyreactivity screen of Harvey et al. (2022)

Assay: yeast display, Sf9 membrane polyspecificity reagent, FACS + sequencing; frameworks hold sequencing errors
Method in brief: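 After 36–48 hours of galactose induction, yeast (Saccharomyces cerevisiae BJ5465) displaying a synthetic nanobody library were stained at 4 °C for 1 hour with 10% biotinylated, detergent-solubilized Sf9 membrane reagent. Streptavidin microbeads enriched the stained cells before FACS sorting into low and high (top ~1%) gates on anti-HA and streptavidin fluorescence. Each clone's polyreactivity label reflects its gate of origin.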

Row | Sequence | polyreactivity (PSR sort gate)
1 | QVQLVESGGGLVQAGGSLRLSCAASGFTFTYYAMGWYRQAPGKERELVAAISGNGGSTYYADSVKGRFTISRDNAKNTVYLQMNSLKPEDTAVYYCNALPKSVGRWYRGDYWGQGTQVTVSS | high polyreactivity
2 | QVQLVESGGGLVQAGGSLRLSCAASGFTFTYYAMGWYRQAPGKERELVAAISWSSDSTYYADSVKGRFTISRDNAKNTVYLQMNSLKPEDTAVYYWAARPGSKNVEYYYWGQGTQVTVSS | low polyreactivity
3 | QVQLVESGGGLVQAGGSLRLSCAASGFTFTYYAMGWYRQAPGKERELVASISRRGGDTYYADSVKGRFTISRDNAKNTVYLQMNSLKPEDTAVYYCATRRRQALDGGYYYWGQGTQVTVSS | high polyreactivity
4 | QVQLVESGGGLVQAGGSLRLSCAASGFTFTYYVMGWYRQAPGKVRELVAAITRGGITDYADSVKGRFTISRDNAKNTVDLQMNSLKPEETAVYYCAAYYSYVLDYDYWGQGTQVTVSS | low polyreactivity
5 | QVQLVESGGGLVQAGGSLRLSCAASGFTFVAYAMGWYRQAPGKERELVAAISRRGGPTYYADSVKGRFTISRDNAKYTVYLQMNSLKAEDTAVYYCAAGWKAFDQRRTGRLIRLLGQGTQVTVSS | high polyreactivity
6 | QVQLVESGGGLVQAGGSLRLSCAASGFTFVAYAMGWYRQAPGKERELVAAITWSGSRTYYADSVKGRFTISRDNAKNTVYLQMNSLKPEDTAVYYCAAGKTEGHYGYWGQGTQVTVSS | high polyreactivity
7 | QVQLVESGGGLVQAGGSLRLSCAASGFTFVAYAMGWYRQAPGKERELVAAITWSGSRTYYADSVKGRFTISRDNAKNTVYLQMNSLKPEDTAVYYCAARKTEGHYGYWGQGTQVTVSS | high polyreactivity
8 | QVQLVESGGGLVQAGGSLRLSCAASGFTFVGNAMGWYRQAPGKERELVATITSGGNTKYADSVKGRFTISRDNAKNTVYLQMNILKPEDTAVYYCAADSDSFWGVPSYYWGQGTQVTVSS | low polyreactivity
9 | QVQLVESGGGLVQAGGSLRLSCAASGFTFVGNTMGWYRQAPGKERELVAAIRGRDGRTYYADSVKGRFTISRDNEKNTVYLQMNSLKPEDTAVYYCNVDVKYSVRSEFDYWGQGTQVTVSS | low polyreactivity
10 | QVQLVESGGGLVQAGGSLRLSCAASGFTFVGYAMGWYRQAPGKESELVAAITSSGGSTYYADSVKGRFTISRDNAKNTVYLQMNSLKPEDTAVYYCAAPAPVLSTQKRFDSWGQGTQVTVSS | low polyreactivity
11 | QVQLVESGGGLVQAGGSLRLSCAASGFTFVGYVMGWYRQAPGKERELVAAISRRGRSTYYADSVKGRFTISRDNAKNTVYLQMNSLKPEDTAVYYCNKRWSSKSVQYDYWGQGTQVTVSS | high polyreactivity
12 | QVQLVESGGGLVQAGGSLRLSCAASGFTFVPHTMGWYRQAPGKERELVAGINYGVGSTYYADSVKGRFTISRDNAMNTVYLQMNSLKPEDTAVYYCAADIVYLYGLLYYWGQGTQVTVSS | low polyreactivity
13 | QVQLVESGGGLVQAGGSLRLSCAASGFTFVPYAMGWYRPAPGKERELLAAIDFDDATTYYADSVKGRFTISRDNAKNTVYLQMNSLKPEDTAVYYCAAVYYRRSYQGGYEYWGQGTQVTVSS | high polyreactivity
14 | QVQLVESGGGLVQAGGSLRLSCAASGFTFVPYTMGWYRQAPGKERELVPRINTSGGGTYYADSVKGRFTISRDNAKNTVYLQMNSLKPEDTAVYYCAARRNYRAQPKTRWTGYYYWGQGTQVTVSS | high polyreactivity
15 | QVQLVESGGGLVQAGGSLRLSCAASGFTFVRYAMGWYRQAPGKERELVAAISRRGGSTYYADSVKGRFTISRDNAKNTVYLQMNSLKPEDTAVYYCNALPRPSYPFDYWGQGTQVTVSS | high polyreactivity
16 | QVQLVESGGGLVQAGGSLRLSCAASGFTFVRYAMGWYRQAPGKERELVAVISRSGGSTNYADSVKGRFTISRDNAKNTVYLQMNSLKPEDTAVYYCAASLQYRRLVKGGDYWGQGTQVTVSW | high polyreactivity
17 | QVQLVESGGGLVQAGGSLRLSCAASGFTFVRYTMGWYRQAPGKERELVAVIRRGGSTYYADSVKGRFTISRDNAKNTVYLPMKSLKPEDTAVYYCNALSALAVEDGYWGQGTQVTVSS | low polyreactivity
18 | QVQLVESGGGLVQAGGSLRLSCAASGFTFVRYTMGWYRQAPGKERELVAVIRRGGSTYYADSVKGRFTISRDNAKNTVYLQMNSLKPEDTAVYYCNALSALAVEDGYWGQGTQVTVSS | low polyreactivity
19 | QVQLVESGGGLVQAGGSLRLSCAASGFTFVSYAMGWYRQAPGKERELVAAISKRGGSTSYADSVKGRFTISRDNAKNTVYLQMNSLKPEDTAGYYCAARYGSSYSWSNYWGQGTQVTVSS | high polyreactivity
20 | QVQLVESGGGLVQAGGSLRLSCAASGFTFVVYDMGWYRQAPGKESELVAVINNSGGSTYYADSVKGRFTISRDNAKNTVSLQMNSLKPEDTAVYYCATRTPVWVNTESDYWGQGTQVTVSS | low polyreactivity
21 | QVQLVESGGGLVQAGGSLRLSCAASGFTFVYYAKGWYRQAPGKERELVATISGNGGRTYYADSVKGRFTISRDNAKNTVYLQMNSLKPEDTAVYYCAALLYIRSVGYDYWGQGTQVTVSS | low polyreactivity
22 | QVQLVESGGGLVQAGGSLRLSCAASGFTFVYYAMGWYRQAPGKERALVASITQSGGSTRYADSVKGRFTISRDNAKNTVYLQMNSLKPEDTAVYYCNRRLYRRWGLDWQYYYWGQGTQVTVSS | high polyreactivity

Row | Sequence | polyreactivity (PSR sort gate)
23 | QVQLVESGGGLVQAGGSLRLSCAASGFTFVYYAMGWYRQAPGKERELVAAISRRGGNTNYADSVKGRFTISRDNEKNTVYLQMNSLKTEDTAVYYCNARLTGDRYYYYPMDYWGQGTQVTVST | high polyreactivity
24 | QVQLVESGGGLVQAGGSLRLSCAASGFTFVYYAMGWYRQAPGKERELVATISGHGGRTYYADSVKGRFTISRDNAKNTVYLQMNSLKPEDTAVYYCAALLYIRSVGYDYWGQGTQVTVSS | low polyreactivity
25 | QVQLVESGGGLVQAGGSLRLSCAASGFTFVYYTMGWSSQAPGKERELVAAISSSGGRTSYADSVKGRFTISRDNEKNTVYLQMNSLKPEDTAVYYCAARAYPTWRTYYYWGQGTQVTVSS | high polyreactivity
26 | QVQLVESGGGLVQAGGSLRLSCAASGFTFVYYVMGLYRQAPGKERELVAAINAGGGSTYYADSVKGRFTISRDNAKNTVYLQMNSLKPEDTAVYYCNARVRVRLGRNWSSYYYWGQGTQVTVST | high polyreactivity
27 | QVQLVESGGGLVQAGGSLRLSCAASGFTFVYYVMGWYRQAPGKEREKVAAINAGGGSTYYADSVKGRFTISRDNAKNTVYLQMHSLKPEDSAVYYCATRPRYYYFRYDYWGQGTQVTVSS | high polyreactivity
28 | QVQLVESGGGLVQAGGSLRLSCAASGFTFVYYVMGWYRQAPGKERELVAAINAGGGSTYYADSVKGRFTISRDNAKNTVYLQMNSLKPEDTAVYYCNARVRVRLGRNWSSYYYCGQGTQVTVSS | high polyreactivity
29 | QVQLVESGGGLVQAGGSLRLSCAASGFTFVYYVMGWYRQAPGKERELVAAINAGGGSTYYADSVKGRFTISRDNAKNTVYLQMNSLKPEDTAVYYCNARVRVRLGRNWSSYYYWGQGTQVTVSS | high polyreactivity
30 | QVQLVESGGGLVQAGGSLRLSCAASGFTFWAYAMGWYRHAPGKEMEVVAAISKTGGRTYYADSVKGRFTISRDNAKNNDYLQINSLKPEDTAVYYCAVDITGLYYPVDYWGQGTQVTVSS | high polyreactivity
31 | QVQLVESGGGLVQAGGSLRLSCAASGFTFWDYAMGWYRQAPGKERELVATISSDGSTNYADSVKGRFTISRDNAKNTVYLQMNSLKPEDTAVYYCAADGYLYFWYPYDYWGQGTQVTVSS | low polyreactivity
32 | QVQLVESGGGLVQAGGSLRLSCAASGFTFWDYAMGWYRQSPGKERELVAAISSRGTRTYYADSVKGRFTISRDNAKNTVYLQMNSLKPEDTAVYYCATAITDPDYIHNYWGQGTQVTVSS | high polyreactivity
33 | QVQLVESGGGLVQAGGSLRLSCAASGFTFWGYTMGWYRQAPGKERELVAAITSTGSTYYADSVKGRFTISRDNAKNTVYFLMNSLKPEDTAVYYCAATRGSSEYYYWGQGTQLTVSS | low polyreactivity
34 | QVQLVESGGGLVQAGGSLRLSCAASGFTFWIYAMGWYRQAPGKERELVAAISASGGSTRYADSVKVRFTISRDNAKNTVYLQMNSLKPEDTAVYYCAAYHGLRRGFDYWGPGTQVTVSS | high polyreactivity
35 | QVQLVESGGGLVQAGGSLRLSCAASGFTFWIYAMGWYRQAPGKERELVAVISRGGSTYYADSVKGRFTISRDNAKNTVYLQMNSLKPEDTAVYYCNAVGVRGYDYWGQGTQVTVSS | high polyreactivity
36 | QVQLVESGGGLVQAGGSLRLSCAASGFTFWIYAMGWYRQARGKEWELVAAISASGGYTRYADSVKGRFTISRDNAKNTVYLQMNSLKPEDTAVYYCAAYHGLRRGFDYWGEGTQVTVSS | high polyreactivity
37 | QVQLVESGGGLVQAGGSLRLSCAASGFTFWLYAMGWYRHAPAKEREFVAAISTSGGSTYADSVKGRFTISRDNAKYTVYLQMNSLKPEDTAVYYCNAGYVLYYDYHLFYWGQGTQVTVSS | low polyreactivity
38 | QVQLVESGGGLVQAGGSLRLSCAASGFTFWQYAMGWYRQAPGKERELVAAITWDGGSTYYADSVKGRFTISRDNAKNTVYLQMNSLKPEDTAVYYCAKLFGGTYYEYDYWGQGTQVTVSS | low polyreactivity
39 | QVQLVESGGGLVQAGGSLRLSCAASGFTFWRNAMGWYRQAPGKERELVAAISSGTGRTYYADSVKGRFTISRDNAKYTVYLQMNSLKPEDTAVYYCAKVNWRTSYGTSTRDYWGQGTQVTVSS | low polyreactivity
40 | QVQLVESGGGLVQAGGSLRLSCAASGFTFWRYAMGWSRQAPGKERELVAAISRTGGRTYYADSVKGRFTISRDNAKITVYLQMTSLKPEDTAVYYCAAVKYETYRYNYDYWGQGTQVTVSS | high polyreactivity
41 | QVQLVESGGGLVQAGGSLRLSCAASGFTFWRYTMGWYRQAPGKERELVAAISGGTTTYYADSVKGRFTISRDNAKNTVYLQMNSLKPEDTAVYYCAAYSQRARTYDYWGHGTQVTVSS | high polyreactivity
42 | QVQLVESGGGLVQAGGSLRLSCAASGFTFWTYAMGWYRQAPGKERELVAAIDSGGSTYYADSVKGRFTISRDNAKNTVFLQMNSLKPEDTAVYYCIAGPSVTSGYDYDYWGQGTQVTVSS | low polyreactivity
43 | QVQLVESGGGLVQAGGSLRLSCAASGFTFWTYAMGWYRQAPGKERELVAAIDSGGSTYYADSVKGRFTISRDNAKNTVYLQMNSLKPEDSAVYYCNAGPSVTSGYDYDYWGQGTQVTVSS | low polyreactivity
